Article PMC4348336 (Biochemistry, 2015)

Molecular target: Creatine kinase brain type (CKB) (UniProt P12277 1-381)
Assay: SEC-MALS

Sequence of Creatine kinase brain type (CKB) (P12277 whole entry): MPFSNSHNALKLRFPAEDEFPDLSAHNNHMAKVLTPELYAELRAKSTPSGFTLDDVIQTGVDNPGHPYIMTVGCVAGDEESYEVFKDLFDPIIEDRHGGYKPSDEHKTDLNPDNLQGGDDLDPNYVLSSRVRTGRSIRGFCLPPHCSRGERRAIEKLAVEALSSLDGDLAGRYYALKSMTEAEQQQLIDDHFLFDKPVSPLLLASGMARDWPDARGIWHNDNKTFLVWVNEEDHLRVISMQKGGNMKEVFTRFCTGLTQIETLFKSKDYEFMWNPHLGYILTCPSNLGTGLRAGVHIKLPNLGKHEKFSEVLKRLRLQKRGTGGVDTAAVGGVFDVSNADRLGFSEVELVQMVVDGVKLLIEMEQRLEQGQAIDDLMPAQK

B1: ASB9(1-252) (domain or fragment, UniProt Q96DX5 1-252, looked up)
chain: MDGKQGGMDGSKPAGPRDFPGIRLLSNPLMGDAVSDWSPMHEAAIHGHQLSLRNLISQGWAVNIITADHVSPLHEACLGGHLSCVKILLKHGAQVNGVTADWHTPLFNACVSGSWDCVNLLLQHGASVQPESDLASPIHEAARRGHVECVNSLIAYGGNIDHKISHLGTPLYLACENQQRACVKKLLESGADVNQGKGQDSPLHAVARTASEELACLLMDFGADTQAKNAEGKRPVELVPPESPLAQLFLER
- stoichiometry N: 1 ASB9 per CK dimer
